Consider 1 molecule from US20040072168A1, “Novel deoxynucleoside kinase enzyme variants” (priority 2000, published 2004).

Data set [1] has as its system TK deficient E. coli strain KY895. Briefly: Determination of LD100 of nucleoside analogues on M9 plates, E. coli KY895 transformed with kinase variant plasmids. The format is cell-based. The note with it: KY895 expressing the variant. The text has this: The mutagenized PCR fragments were purified by the PCR Kit from Boehringer Mannhein, cut with BamHI and EcoRI and sub-cloned into the multiple cloning site of the pGEX-2T plasmid vector. The TK deficient E. coli strain KY895 [F tdk-1 ilv] [Igarashi K, Hiraga S & Yura T: A deoxythymidine kinase deficient mutant of Eschericha coli. II. Mapping and transduction studies with phage Φ80; Genetics 1967 57 643-6541, was electro-transformed with the ligation mix, using standard techniques, and plated on LB-ampicillin (100 μg/ml) plates.
Overnight cultures of these colonies were diluted 200-fold in 10% glycerol and 2 μl drops of the dilution were spotted on M9 minimal medium plates [Ausubel F, Brent R, Kingston R E, Moore D D, Seidman J G, Smith J A & Struhl K (Eds.): Short protocols in molecular biology; Wiley, USA, 3rd Edition, 1995, p.1-2] supplemented with 0.2% glucose, 40 μg/ml isoleucine, 40 μg/ml valine, 100 μg/ml ampicillin and with or without nucleoside analogues.
All clones with increased sensitivity towards at least one nucleoside analogue were tested on M9 plates with logarithmic dilution of the nucleoside analogues to determine the lethal dose (LD100) of the nucleoside analogues, at which no growths of bacteria could be seen.
Plates were prepared by mixing the medium with the analogues at the lowest temperature possible, before pouring the plates.

The conditions of data set [2]: cited from earlier work.

Some results are limits rather than exact numbers.

B1: Dm-dNK: wild-type Drosophila melanogaster deoxyribonucleoside kinase (SEQ ID NO: 1) (protein)
chain: MAEAASCARKGTKYAEGTQPFTVLIEGNIGSGKTTYLNHFEKYKNDICLLTEPVEKWRNVNGVNLLELMYKDPKKWAMPFQSYVTLTMLQSHTAPTNKKLKIMERSIFSARYCFVENMRRNGSLEQGMYNTLEEWYKFIEESIHVQADLIIYLRTSPEVAYERIRQRARSEESCVPLKYLQELHELHEDWLIHQRRPQSCKVLVLDADLNLENIGTEYQRSESSIFDAISSNQQPSPVLVSPSKRQRVAR
modifications: Drosophila melanogaster; CDS (1)..(750)
With B1, in data set [1] (lethal dose (no growth of bacteria) of araC, range 3.16-1000 μM), the “LD100 araC” value amounted to 1000 µM. Further, the “LD100 2CdA” value in data set [1] (lethal dose of 2CdA, range 0.0316-100 μM, second line of last column) turned out to be 100 µM. In data set [1] (lethal dose of AZT, range 0.01-100 μM), the “LD100 AZT” value was 100 µM. The “LD100 araA” value in data set [1] (lethal dose of araA, range 10-1000 μM, third line of last column) was more than 1000 µM. The “LD100 ddA” value in data set [1] (lethal dose of ddA, range 0.316-31.6 μM) stood at 31.6 µM. Moreover, the “LD100 ddC” value in data set [1] (lethal dose of ddC, range 10-3500 μM, first line of last column) is more than 3500 µM. For the same molecule, in data set [2] (depending on the substrate), the “catalytic rate of deoxyribonucleoside phosphorylation, higher than reported for any of the mammalian deoxyribonucleoside kinases” value is 4-20,000 fold. In addition, in data set [2] (thymidine, versus HSV1-TK), the “turnover of thymidine, higher than catalysed by HSV1 thymidine kinase” value is given as 70 fold.
